Laboratory results: patent publication US20050069887A1, “Dna synthesis promoters dna polymerase-associated factors and utilization thereof” (priority 2001, published 2005)
Where two headings read alike, the source gives them in different places.

Key:
KOD-plus DNA polymerase = biological target: T1, KOD-plus DNA polymerase (Thermococcus kodakarensis, UniProt P77933, DEL407-766/DEL853-1389); format: biochemical, Thermococcus kodakaraensis KOD1; conditions: 2 mM potassium oxalate, FIG. 14
T1 construct: purchased Toyobo
Description: Oxalate ion and DMSO were investigated for their synergistic effectiveness for hot start enzyme in amplification of a target DNA which is difficult to amplify by usual PCR, using a KOD-plus DNA polymerase, i.e., hot start enzyme. Potassium oxalate was added to the PCR buffer supplied with KOD-plus (TOYOBO CO., LTD.) to attain a final concentration of 2 mM. Also used were 0.2 mM dNTPs and […] of a pair of primers of SEQ ID Nos:18 and 19, and 1.0 U KOD-plus DNA polymerase. 0.5 μL of cDNA obtained by reverse transcription of 500 ng of total RNA derived from human cell line K562 with ThermoScript (Invitrogen) was used as a template. This reaction mixture was subjected to PCR by using GeneAmp2400 (PE Applied Biosystems) to investigate the influence on the PCR results of varying the concentration of DMSO. The PCR conditions were as follows: 1 preliminary reaction of 94° C. for 2 minutes, and then 40 cycles of 94° C. for 15 seconds, 60° C. for 30 seconds and 68° C. for 9 minutes.

KOD Dash DNA polymerase = test: PCR using mixed-type KOD Dash DNA polymerase with PCNA/RFC (Example 3-15); format: biochemical, Thermococcus kodakaraensis KOD1; conditions: 1 ng template, FIG. 34
Description: The effect produced by the combined use of KOD-PCNA protein and the KOD-RFC complex in PCR using a mixture of two kinds of DNA polymerases was investigated with the same target DNA and reaction solution as in Example 3-12
1 ng of genomic DNA derived from human cell line K562 was used as a template. KOD Dash DNA polymerase, which is a mixture of KOD DNA polymerase and KOD (exo-) DNA polymerase which has lost KOD 3′-5′ exonuclease activity, was used as the mixed-type DNA polymerase.

KOD DNA polymerase [1] = biological target: T2, KOD DNA polymerase (Thermococcus kodakarensis, UniProt P77933, DEL407-766/DEL853-1389); test: DNA elongation by KOD DNA polymerase on primed M13 mp18 DNA (Examples 3-10, 3-11); format: biochemical, Thermococcus kodakaraensis KOD1; conditions: for elongation (size of synthesized DNA): 75° C.
Description: 150 fmol of KOD DNA polymerase was reacted with 1.5 pmol of DNA obtained by annealing an M13 P7 primer (SEQ ID NO:59) to M13 mp18 DNA (circular single-stranded DNA) to determine processivity. 450 fmol, 1.5 pmol, 4.5 pmol and 15 pmol samples of KOD-PCNA obtained in Example 3-6 were added to reaction buffer solutions [20 mM Tris-HCl (pH 7.5 at 75° C.), 10 mM KCl, 6 mM (NH4)2SO4, 2 mM MgCl2, 0.1% Triton X-100, 10 μg/ml BSA]. The mixtures were reacted at 75° C. for varying times: 30 seconds, 60 seconds and 120 seconds, to investigate their degrees of elongation. In the course of the elongation reaction DNA samples were withdrawn at the above reaction times and added to the same quantity of a stop solution (60 mM EDTA, […], 0.1% BPB, 30% glycerol). The obtained DNA samples were separated by 1% alkaline agarose electrophoresis and analyzed to determine the sizes of the synthesized DNA.
KOD DNA polymerase reactions were conducted in a similar manner to Example 3-10 either in the presence of KOD-PCNA or in the copresence of KOD-PCNA and KOD-RFC by using an circular single stranded DNA, which was annealed with a primer, as a substrate. […] This is presumably because almost all the KOD DNA polymerase molecules were available to react with PCNA in the presence of the RFC complex.

KOD DNA polymerase [2] = biological target: T2, KOD DNA polymerase; test: PCR of 3.6 kb globin cluster DNA using KOD DNA polymerase with PCNA/RFC (Examples 3-12 to 3-14); format: biochemical, Thermococcus kodakaraensis KOD1
Description: The effect produced by the addition of KOD-PCNA protein on PCR amplification of a 3.6 kb DNA in a human […] cluster was investigated. The PCR buffer supplied with KOD-Plus (TOYOBO CO.,LTD), 0.2 mM dNTPs and 0.3 μM of a pair of primers of SEQ ID Nos:60 and 61 were used. 1 U KOD DNA polymerase was used as a heat-resistant DNA polymerase, and genomic DNA derived from human cell line K562 was used as a template. This reaction mixture was subjected to PCR using GeneAmp2400 (PE Applied Biosystems) to investigate the difference in the PCR results caused by the presence or absence of PCNA. The PCR conditions were as follows: 1 preliminary reaction of 94° C. for 2 minutes; and then 35 cycles of 94° C. for 20 seconds, 60° C. for 30 seconds and 68° C. for 4 minutes.
The effect produced by the addition of the KOD-RFC complex was investigated with the same target DNA and reaction solution as in Example 3-12. The amount of RFC effective for PCR was investigate by using 1 ng of genomic DNA derived from human cell line K562 as a template.
The effect produced by the addition of KOD-PCNA protein and KOD-RFC complex was investigated with the same target DNA and reaction solution as in Example 3-12. 1 ng of genomic DNA derived from human cell line K562 was used as a template and their optimal ratios were investigated.

pMol 21 = conditions: PCR product fidelity, rpsL / pMol 21 method; cited from earlier work
[3] = PCNA added in 30 times the molar amount of DNA polymerase

Which “amplification of target DNA” value (KOD-plus DNA polymerase; 5% DMSO) does the source give for `C[S+](C)[O-]` [DMSO, dimethylsulfoxide] here?
The value was “sufficient amplification was observed”.

And the “amplification of target DNA” value (KOD-plus DNA polymerase; in the presence of DMSO, cDNA template)?
Its value is “an increase in amplification amount was observed”.

B1: PCNA: proliferating cell nuclear antigen derived from Thermococcus kodakaraensis KOD1, SEQ ID NO: 2 (protein)
chain: MPFEVVFDGAKEFADLIATASNLIDEAAFKFTEEGISMRAMDPSRVVLIDLNLPESIFSKYEVEEPETIGINMDQFKKILKRGKAKDTLILRKGDENFLEITFEGTAKRTFRLPLIDVEELELELPELPFTAKVVLLGEVLKEGIKDASLVSDAIKFIAKENEFTMKAEGETNEVEIRLTLEDEGLLDLEVEEETKSAYGISYLSDMVKGIGKADEVILRFGNEMPLQMEYMIRDEGRLTFLLAPRVEE
modifications: Thermococcus kodakaraensis KOD1; KOD-PCNA
With B1 as the molecule, how does the “amplification of the target DNA” value (KOD Dash DNA polymerase; addition of PCNA) read?
Its value is “amplification of the target DNA was made somewhat clearer”.

And the “DNA elongation rate of KOD DNA polymerase” value (KOD DNA polymerase [1]; [3])?
Its value is 120 bases per second.

And the “DNA elongation rate relative to the sample with no PCNA added” value (KOD DNA polymerase [1]; [3])?
The value was “about 3 times”.

And the DNA elongation rate (KOD DNA polymerase [1]; only PCNA added, FIG. 30)?
The DNA elongation rate was “an increase in the DNA elongation rate was observed”.

And the “increase of DNA elongation rate compared to single use of KOD DNA polymerase” value (KOD DNA polymerase [1]; using KOD-PCNA)?
The value was “several fold”.

What about the “amplification of the target DNA” value (KOD DNA polymerase [2]; 10 fmol of PCNA alone, 1 ng template, FIG. 33) of the same molecule?
Its value is “amplification of the target DNA was barely observed together with a smear”.

What about the “amplification of the target DNA” value (KOD DNA polymerase [2]; 30 fmol of PCNA, 1 ng template DNA, FIG. 31) of the same molecule?
The value was “amplification of the target DNA was observed”.

And the “amplification of the target DNA” value (KOD DNA polymerase [2]; PCNA added, 3 ng template DNA, FIG. 31)?
The value was “amplification of the target DNA was more clearly observed”.

What about the “increase of PCR sensitivity” value (KOD DNA polymerase [2]; addition of PCNA) of the same molecule?
Its value is “at least 3 fold”.

B2: RFC: replication factor C complex of KOD-mRFCS and KOD-RFCL derived from KOD1 (protein)
chain 1: MSEEVKEVKILEKPWVEKYRPQRLEDIVGQDHIVKRLKHYVKTGSMPHLLFAGPPGVGKTTAALALARELFGENWRHNFLELNASDERGINVIREKVKEFARTKPIGGASFKIIFLDEADALTQDAQQALRRTMEMFSNNVRFILSCNYSSKIIEPIQSRCAIFRFRPLRDEDIAKRIRYIAENEGLELTEEGLQAILYVAEGDLRRAINVLQAAAALDTKITDENVFLVASRARPEDVREMMTLALEGNFLKAREKLRDILLRQGLSGEDVLIQMHKEVFNLPIPEDKKVALADKIGEYNFRLVEGANEMIQLEALLAQFTIMGK
chain 2: MTEVPWVEKYRPRKLSEIVNQEKALEQVRAWVEAWLHGNPPKKKALLLAGPPGVGKTTTVYALANEYGFEVIELNASDERTYEKIERYVQAAYTMDILGKRRKLIFLDEADNIEPSGAREIAKLIDKARNPIIMSANHYWEVPREIRNKAQIVEYKRLTQRDIIKALVRILKREGLEVPKEVLYEIAKRANGDLRAAVNDLQTVVTGGVEDAVEVLAYRDTEKSVFQALAQLFATDNAKRAKLAVLGVDMMPNELLQWIDENVPYVYYRPEDIARAYEALSRADIYLGRAQRTGNYGLWKYATDMMTAGVAVAGIKKKGFVKIYPPKTIKLLTESKEERSLRDSVIKKIMSEMHMAKLEAIETLRYLRVIFENNPDLAAHFVVFLDLSEKEVEFITGDKEKAKTIWAKSMNIEKKLKKEGELEARAKEAERRVEAAEEEETMEAGEPEEELEEVEEEELTEEELEEAEEEIETVGKKEKPEKEKTKKGKQATLFDFLKK
Which “amplification of the target DNA” value (KOD Dash DNA polymerase; further addition of RFC to PCNA) does the source give for B2 here?
Its value is “amplification of the target DNA was greatly clarified”.

What about the “amplification of the target DNA” value (KOD DNA polymerase [2]; 1.5 pmol further added to 10 fmol of PCNA, 1 ng template, FIG. 33) of the same molecule?
Its value is “sufficient amplification was observed”.

B3: KOD DNA polymerase: Thermococcus kodakaraensis KOD1-derived thermostable α-type DNA polymerase, SEQ ID NO: 1 (protein)
chain: MILDTDYITEDGKPVIRIFKKENGEFKIEYDRTFEPYFYALLKDDSAIEEVKKITAERHGTVVTVKRVEKVQKKFLGRPVEVWKLYFTHPQDVPAIRDKIREHPAVIDIYEYDIPFAKRYLIDKGLVPMEGDEELKMLAFDIETLYHEGEEFAEGPILMISYADEEGARVITWKNVDLPYVDVVSTEREMIKRFLRVVKEKDPDVLITYNGDNFDFAYLKKRCEKLGINFALGRDGSEPKIQRMGDRFAVEVKGRIHFDLYPVIRRTINLPTYTLEAVYEAVFGQPKEKVYAEEITTAWETGENLERVARYSMEDAKVTYELGKEFLPMEAQLSRLIGQSLWDVSRSSTGNLVEWFLLRKAYERNELAPNKPDEKELARRRQSYEGGYVKEPERGLWENIVYLDFRSLYPSIIITHNVSPDTLNREGCKEYDVAPQVGHRFCKDFPGFIPSLLGDLLEERQKIKKKMKATIDPIERKLLDYRQRAIKILANSYYGYYGYARARWYCKECAESVTAWGREYITMTIKEIEEKYGFKVIYSDTDGFFATIPGADAETVKKKAMEFLKYINAKLPGALELEYEGFYKRGFFVTKKKYAVIDEEGKITTRGLEIVRRDWSEIAKETQARVLEALLKDGDVEKAVRIVKEVTEKLSKYEVPPEKLVIHEQITRDLKDYKATGPHVAVAKRLAARGVKIRPGTVISYIVLKGSGRIGDRAIPFDEFDPTKHKYDAEYYIENQVLPAVERILRAFGYRKEDLRYQKTRQVGLSAWLKPKGT
modifications: Thermococcus kodakaraensis KOD1; KOD DNA polymerase
What does the source list for B3?
mutation rate (pMol 21): ≤ 0.1%; processivity (KOD DNA polymerase [1]; no PCNA added): ≥ 5 kb; elongation (size of synthesized DNA) (KOD DNA polymerase [1]; no PCNA added, reaction time 30 seconds): 1.2 kb; elongation (size of synthesized DNA) (KOD DNA polymerase [1]; no PCNA added, reaction time 60 seconds): 2.5 kb; elongation (size of synthesized DNA) (KOD DNA polymerase [1]; no PCNA added, reaction time 120 seconds): 5 kb; elongation rate (KOD DNA polymerase [1]; no PCNA, 1.5 pmol substrate DNA relative to 150 fmol DNA polymerase): about 40 bases per second
